Experimental data reported in a protein production outcome set (Wang et al. 2014).

Test: label from the status in PepcDB records

Row | Sequence | protein production
1 | IPTCKITLKETFLTSPEELYRVFTTQELVQAFTHAPATLEADRGGKFHMVDGNVSGEFTDLVPEKHIVMKWRFKSWPEGHFATITLTFIDKNGETELCMEGRGIPAPEEERTRQGWQRYYFEGIKQTFGYGA | not failed
2 | IQAGILANSFHVKLSDETQMVVKYQNQPFVNGTFGNWQILEAETINGINQILWRNPDIEEVGIWNTDANWNWISSETWSANSLKTLNAEVTFQIDINNDQLIG | failed
3 | IQLIVNGQSQLVPSPDSGTDSGTTNDARLNIRQLLEHMGLQGKRIAVERNGEIVPRSQFDQPMLASGDKLEIVVAVGGG | failed
4 | IQPTYTSTTRIYVVNQATDNNNLSAQDLQAGTYLANDYKEIITSNDVLSEVIKDEKLNLSEAELSKMVSVNIPTDTRLISISVNAKTGQDAQTLANKVREVASKKIKKVTKVEDVTTLEEAKLPESPSSPNIK | failed
5 | IQRSIERALDFRKEVQRLREESDGWFFDIWQPEAVDKAECWPVAPGEDWHGFKDADADHMYLDPVKVTILTPGMDEQGNMDEEGIPAALVAKFLDERGVVVEKTGPYNLLFLFSIGIDKTRAMGLLRGLTEFKRAYDLNLRVKNMLPDLYAEDPDFYRNMRIQDLAQGIH | failed
6 | IRHEITSRTSVSVLVNRCNWFCTSPKCSGLTVMGCLCVAMSVAKKDKPTMSVTALINWARPLPPGQQQQPMTPTSPGNMLQPMATPSNLPTVDCSLDIQWLNLEGGFMSPMSPPEMKPDTAMLDGLRDDSTPPPAFKNYPPNHPLSGSKHLCSICGDRASGKHYGVYSCEGCKGFFKRTVRKDLTYACREERNCIIDKRQRNRCQYCRYQKCLACGMKREAVQEERQRAARGTEDAHPSSSVQVQELSIERLLEMESLVADPSEEFQFLRVGPDSNVPPKFRAPVSSLCQIGNKQIAALVVWARDIPHFSQLEMEDQILLIKGSWNELLLFAIAWRSMEFLTEERDGVDGTGNRTTSPPQLMCLMPGMTLHRNSALQAGVGQIFDRVLSELSLKMRTLRVDQAEYVALKAIILLNPDVKGLKNRQEVEVLREKMFLCLDEYCRRSRSSEEGRFAALLLRLPALRSISLKSFEHLFFFHLVADTSIAGYIRDALRNHAPPIDTNMM | not failed
7 | IRQAARGDAERGLGRRRLMQALDGMEAGCALLDGRGSLQEASHGLCRLLGRGRADLLGMNVADVCAPEDLSRLNAALACGGRMQRLRLRLMDGDGRAVDCELVLTPQEESMDGAAWLLQAED | failed
8 | ITSFIRNRDKLTQAEYLLRLAGEKASLGGWRIELDPPVITWTSETAVIHGMPPDYSPPDVGTAVQFYAPEFREFIMEVFERCVQQGEPFDVICQLQVPDGRRPWIRAIGEAERDAQGKVIVVQGAFQDIS | failed
9 | KDAAWLNGWTSYNKVAREIVLAEMANTTILEEGKIVAELRRLLPDKAGLFIGNSMPIRDVDTYFSQIDKKIKMLANRGANGIDGVVSSALGASVVFQPMFLLIGDLSFYHDMNGLLMAKKYKMNLTIVIVNNDGGGIFSFLPQANEPKYFESLFGTSTELDFRFAAAFYDADYHEAKSVDELEEAIDKASYHKGLDIIEVKTNRHENKANHQALWVKIADALKALD | failed
10 | KEGVLCLNTKGQITYANSQALKLLGGSLEELYGKTPQHYFTLENTEGKGMGELLERVLCGESTLQEGSGTLYKKERFLAHVEFTLSPIIDKG | failed
11 | KEQILSSEQLARKMMLELGDKKQEHLVAIYMDTQNRIIEQRTIFIGTVRRSVAEPREILHYACKNMATSLIIIHNHPSGSPKPSESDLSFTKKIKRSCDHLGIVCLDHIIVGKNKYYSFREEADIL | not failed
12 | KFGELREISGNQYVNEVTNAEKDLWVVIHLYRSSVPMCLVVNQHLSVLARKFPETKFVKAIVNSCIEHYHDNCLPTIFVYKNGQIEGKFIGIIECGGINLKLEELEWKLSEVGAIQSDLEEN | not failed
13 | KGTLRRITEIAEVSGIEGESIQLNFLYKYDPAKDELIRTEVPSRFIQTLSYHTGLSIEELKWEIEKRRLILDWMIEKGIRRIDEVGYYIKEFYIDEEELLKKIE | failed
14 | KKKSIPQPTNALKSFNWSKLPENKLEGTVWTEIDDTKVFKILDLEDLERTFSAYQRQQDFFVNSNSKQKEADAIDDTLSSKLKVKELSVIDGRRAQNCNILLSRLKLSNDEIKRAILTMDEQEDLPKDMLEQLLKFVPEKSDIDLLEEHKHELDRMAKADRFLFEMSRINHYQQRLQSLYFKKKFAERVAEVKPKVEAIRSGSEEVFRSGALKQLLEVVLAFGNYMNKGQRGNAYGFKISSLNKIADTKSSIDKNITLLHYLITIVENKYPSVLNLNEELRDIPQAAKVN | failed
15 | KKPLSVFKGPLLHISPAEELYFGSIESGEKKTLIVLTNVTKNIVAFKVRTTAPEKYRVKPSNSSCDPGASIDIIVSPHGGLTVSAQDRFLIMAAEMEQSSGTGPAELSQFWKEVPRNKVMEHRLRCHTVESSKPNSLML | not failed
16 | KNASVITVGNEILKGRTVNTNAAFIGNFLTYHGYQVRRGFVVMDDLDEIGWAFRVALEVSDLVVSSGGLGPTFDDMTVEGFAKCIGQDLRIDEDALAMIKKKYGQADLTPQRLKMAKIPPSCRPIENPVGTAPGLICAVGGKKVIILPGVPKEMEALLKAMEKDIIIPD | not failed
17 | KNFNPPTRRNWESNYFGMPLQDLVTAEKPIPLFVEKCVEFIEDTGLCTEGLYRVSGNKTDQDNIQKQFDQDHNINLVSMEVTVNAVAGALKAFFADLPDPLIPYSLHPELLEAAKIPDKTERLHALKEIVKKFHPVNYDVFRYVITHLNRVSQQHKINLMTADNLSICFWPTLMRPDFENREFLSTTKIHQSVVETFIQQCQFFFYNGEIVE | not failed
18 | KNIVVDFTEYNPLHNGHKYCMDFGKSEGLFISVIPGPLERSGRGIPYLVNRHIRAEMALLAGADLVVEGPPMGIMGSGQYMQCLIKIFSALNGDIIPRGYIEEETMERVINSINNGNHIKIKPYNISCIETREKLGEKLEIDNYVIASMSYTIYKLKENFPKWNPKFKFIERIEGISGTKIREGVFNNNFESIKHMLPITTIDVFKNFGDNLSEIILKRNEEMVLDTVNNFDLNKYLPENISEKLNEKEYYESIE | not failed
19 | KNRIGTKALNFTYTLASGAQGSLYQLKAEYLLLFINNPGCQACTETIEGLKNAPIINQLLQEKKLVLLSIYPDEELDEWKKHLSEFPNEWINGYDKKFTIKEEQVYDLKAIPTLYLLDKDKTVLLKDATAPAIEAYLMQH | not failed
20 | KPIPLAVIVVLGCFALGLGGIIGFVHKGEDYQAYQKLQWHTLAPEKIAPLVAQGYTVFVDITSDWCSICQTNKAEVTHREQVVNALMADDIILMQGNWSEADNTIAGYMQYEGIPGTPYNKIYGPRNPNGIVLPSKLTIEAVINGLAQAKAL | failed
21 | KQAEMEVKRESYARERSTVARIQFRLPDGSSFTNQFPSDAPLEEARQFAAQTVGNTYGNFSLATMFPRREFTKEDYKKKLLDLELAPSASVVLLP | failed
22 | KQLLTLKIKCSNQPERQILEKQLPDSMTVQKVKGLLSRLLKVPVSELLLSYESSKMPGREIELENDLQPLQFYSVENGDCLLVR | not failed
23 | KREHAKQHGMIRTEITGAEIAEEMEKERRLFQLQMCEYLIKVNEIKTKKGVDLLQNLIKYYHAQCNFFQDGLKTADKLKQYIEKLAADLYNIKQTQDEEKKQLTALRDLIKSSLQLDQKESRRDSQSRQGGYSMHQLQGNKEYGSEKKGYLLKKSDGIRKVWQRRKCSVKNGILTISHATSNRQPAKLNLLTCQVKPNAEDKKSFDLISHNRTYHFQAEDEQDYVAWISVLTNSKEEALTMAFRGEQSAGENSLEDLTKAIIEDVQRLPGNDICCDCGSSEPTWLSTNLGILTCIECSGIHREMGVHISRIQSLELDKLGTSELLLAKNVGNNSFNDIMEANLPSPSPKPTPSSDMTVRKEYITAKYVDHRFSRKTCSTSSAKLNELLEAIKSRDLLALIQVYAEGVELMEPLLEPGQELGETALHLAVRTADQTSLHLVDFLVQNCGNLDKQTALGNTVLHYCSMYSKPECLKLLLRSKPTVDIVNQAGETALDIAKRLKATQCEDLLSQAKSGKFNPHVHVEYEWNLRQEEIDESDDDLDDKPSPIKKERSPRPQSFCHSSSISPQDKLALPGFSTPRDKQRLSYGAFTNQIFVSTSTDSPTSPTTEAPPLPPRNAGKGPTGPPSTLPLSTQTSSGSSTLSKKRPPPPPPGHKRTLSDPPSPLPHGPPNKGAVPWGNDGGPSSSSKTTNKFEGLSQQSSTSSAKTALGPRVLPKLPQKVALRKTDHLSLDKATIPPEIFQKSSQLAELPQKPPPGDLPPKPTELAPKPQIGDLPPKPGELPPKPQLGDLPPKPQLSDLPPKPQMKDLPPKPQLGDLLAKSQTGDVSPKAQQPSEVTLKSHPLDLSPNVQSRDAIQKQASEDSNDLTPTLPETPVPLPRKINTGKNKVRRVKTIYDCQADNDDELTFIEGEVIIVTGEEDQEWWIGHIEGQPERKGVFPVSFVHILSD | not failed
24 | KRFESPSVIKPNTLTNQQLIETCDQLIENAVKHHLVADVPVGLYLSGGIDSTLLLSKIRKLGHLNFPTFTIANSSREQAFGTRDFEFARLASKLYNSDHHEVSVHAEMLQDLPAFVSMIDQPIGDSALFLTHILSKEAGQHVRVALNGAGADELFAGYNRHSAYKSYLNNLLHKNLAITLIKSTYNILPDGGNHSLKKVFRLWNKFTGMMDVDPIKTCHNFSSSEYFIEKNTSIEVDDKSYEDLSYYLYYCLRNDRTKYLISDILALTDKMTMRSSIEARVPYLDQELRRFVESLDPSVLLKNGRKWILKEVLLRNGGETFLNRPKEGFGMPFGYWLKLPVNKNFVEKLTNKNHPIYEWVPYQTIKNLVDWHLGSKRDCSSELWSVLLLMHWYEKE | failed
25 | KRITRPGNTDDPSGGNKVLLLSIQNPLYPITVDVLYTVCNPVGKVQRIVIFKRNGIQAMVEFESVLCAQKAKAALNGADIYAGCCTLKIEYARPTRLNVIRNDNDSWDYTKPYLGRR | not failed
26 | KRQKIHLGDRSQKCSKCGIIFIRRSTLSRRKTPMCEKCRKDSCQEAALNKDEGNESGKKT | not failed
27 | KTPADNIETADLSASVPTRPAEPERKTLADYGGYPSALDAVKQKNDAAVAAYLENAGDSAMAENVRNEWLKSLGARRQWTLFAQEYAKLEPAGRAQEVECYADSSRNDYTRAAELVKNTGKLPSGCTKLLEQAAASGLLDGNDAWRRVRGLLAGRQTTDARNLAAALGSPFDGGTQGSREYALLNVIGKEARKSPNAAALLSEMESGLSLEQRSFAWGVLGHYQSQNLNVPAALDYYGKVADRRQLTDDQIEWYARAALRARRWDELASVISHMPEKLQKSPTWLYWLARSRAATGNTQEAEKLYKQAAATGRNFYAVLAGEELGRKIDTRNNVPDAGKNSVRRMAEDGAVKRALVLFQNSQSAGDAKMRRQAQAEWRFATRGFDEDKLLTAAQTAFDHGFYDMAVNSAERTDRKLNYTLRYISPFKDTVIRHAQNVNVDPAWVYGLIRQESRFVIGAQSRVGAQGLMQVMPATAREIAGKIGMDAAQLYTADGNIRMGTWYMADTKRRLQNNEVLATAGYNAGPGRARRWQADTPLEGAVYAETIPFSETRDYVKK | failed
28 | KVGVLVAAHGMSTASSMAQVVGQLLDDYDVQAFDMPLDMDPSVAYDHVKRRVEKLDSGKGILLLVDMGSLTTFGERIQQETGIATRTIDMVTTPVVLEAVRKASLVDSDLDSMYQELVGFKGYSRISRNLPTDSQ | failed
29 | KVIIAIDAGHGGQDPGAIGPNGTKEKNVTIAIARKLRALLNADPQFKPVLTRDGDYFISVMGRSEVARKQNANFLVSIHADAAPNRDATGASVWVLSNRRANSEMAGWLEQHEKQSELLGGAGDVLANSQADPYLSQAVLDLQFGHSQRVGYDVATNVLSQLQRIGNLHKRRPEHASLGVLRSPDIPSILVETGFISNNGEERLLGSDDYQEQIAEAIYNGLRNYFMQHPLQSAPRGEAAQTASAAAPGGMLIN | failed
